Measured values taken from patent US12104181B2, “Compositions and methods for treating viral infections targeting TRIM7” (THE BOARD OF REGENTS OF THE UNIVERSITY OF TEXAS SYSTEM, priority 2021, dated 2024).

B1: RLIM: human RING type E3 ligase expressed from lentiviral vector (protein, UniProt Q9NVW2 1-624, looked up)
E3 ubiquitin-protein ligase …: MENSDSNDKGSGDQSAAQRRSQMDRLDREEAFYQFVNNLSEEDYRLMRDNNLLGTPGESTEEELLRRLQQIKEGPPPQNSDENRGGDSSDDVSNGDSIIDWLNSVRQTGNTTRSGQRGNQSWRAVSRTNPNSGDFRFSLEINVNRNNGSQNSENENEPSARRSSGENVENNSQRQVENPRSESTSARPSRSERNSTEALTEVPPTRGQRRARSRSPDHRRTRARAERSRSPLHPMSEIPRRSHHSISSQTFEHPLVNETEGSSRTRHHVTLRQQISGPELLSRGLFAASGTRNASQGAGSSDTAASGESTGSGQRPPTIVLDLQVRRVRPGEYRQRDSIASRTRSRSQTPNNTVTYESERGGFRRTFSRSERAGVRTYVSTIRIPIRRILNTGLSETTSVAIQTMLRQIMTGFGELSYFMYSDSDSEPTGSVSNRNMERAESRSGRGGSGGGSSSGSSSSSSSSSSSSSSSSSSSSPSSSSGGESSETSSDLFEGSNEGSSSSGSSGARREGRHRAPVTFDESGSLPFLSLAQFFLLNEDDDDQPRGLTKEQIDNLAMRSFGENDALKTCSVCITEYTEGNKLRKLPCSHEYHVHCIDRWLSENSTCPICRRAVLASGNRESVV
B2: TRIM14: human RING type E3 ligase expressed from lentiviral vector (protein, UniProt Q14142 1-442, looked up)
Tripartite motif-containing …: MAGAATGSRTPGRSELVEGCGWRCPEHGDRVAELFCRRCRRCVCALCPVLGAHRGHPVGLALEAAVHVQKLSQECLKQLAIKKQQHIDNITQIEDATEKLKANAESSKTWLKGKFTELRLLLDEEEALAKKFIDKNTQLTLQVYREQADSCREQLDIMNDLSNRVWSISQEPDPVQRLQAYTATEQEMQQQMSLGELCHPVPLSFEPVKSFFKGLVEAVESTLQTPLDIRLKESINCQLSDPSSTKPGTLLKTSPSPERSLLLKYARTPTLDPDTMHARLRLSADRLTVRCGLLGSLGPVPVLRFDALWQVLARDCFATGRHYWEVDVQEAGAGWWVGAAYASLRRRGASAAARLGCNRQSWCLKRYDLEYWAFHDGQRSRLRPRDDLDRLGVFLDYEAGVLAFYDVTGGMSHLHTFRATFQEPLYPALRLWEGAISIPRLP
B3: TRIM15: human RING type E3 ligase expressed from lentiviral vector (protein, UniProt Q9C019 1-465, looked up)
E3 ubiquitin-protein ligase …: MPATPSLKVVHELPACTLCAGPLEDAVTIPCGHTFCRLCLPALSQMGAQSSGKILLCPLCQEEEQAETPMAPVPLGPLGETYCEEHGEKIYFFCENDAEFLCVFCREGPTHQAHTVGFLDEAIQPYRDRLRSRLEALSTERDEIEDVKCQEDQKLQVLLTQIESKKHQVETAFERLQQELEQQRCLLLARLRELEQQIWKERDEYITKVSEEVTRLGAQVKELEEKCQQPASELLQDVRVNQSRCEMKTFVSPEAISPDLVKKIRDFHRKILTLPEMMRMFSENLAHHLEIDSGVITLDPQTASRSLVLSEDRKSVRYTRQKKSLPDSPLRFDGLPAVLGFPGFSSGRHRWQVDLQLGDGGGCTVGVAGEGVRRKGEMGLSAEDGVWAVIISHQQCWASTSPGTDLPLSEIPRGVRVALDYEAGQVTLHNAQTQEPIFTFTASFSGKVFPFFAVWKKGSCLTLKG
modifications: lentiviral expression
notes: human RING type E3 ligase expressed from lentiviral vector
B4: TRIM20: human RING type E3 ligase expressed from lentiviral vector (protein, UniProt O15553 1-781, looked up)
Pyrin: MAKTPSDHLLSTLEELVPYDFEKFKFKLQNTSVQKEHSRIPRSQIQRARPVKMATLLVTYYGEEYAVQLTLQVLRAINQRLLAEELHRAAIQEYSTQENGTDDSAASSSLGENKPRSLKTPDHPEGNEGNGPRPYGGGAASLRCSQPEAGRGLSRKPLSKRREKASEGLDAQGKPRTRSPALPGGRSPGPCRALEGGQAEVRLRRNASSAGRLQGLAGGAPGQKECRPFEVYLPSGKMRPRSLEVTISTGEKAPANPEILLTLEEKTAANLDSATEPRARPTPDGGASADLKEGPGNPEHSVTGRPPDTAASPRCHAQEGDPVDGTCVRDSCSFPEAVSGHPQASGSRSPGCPRCQDSHERKSPGSLSPQPLPQCKRHLKQVQLLFCEDHDEPICLICSLSQEHQGHRVRPIEEVALEHKKKIQKQLEHLKKLRKSGEEQRSYGEEKAVSFLKQTEALKQRVQRKLEQVYYFLEQQEHFFVASLEDVGQMVGQIRKAYDTRVSQDIALLDALIGELEAKECQSEWELLQDIGDILHRAKTVPVPEKWTTPQEIKQKIQLLHQKSEFVEKSTKYFSETLRSEMEMFNVPELIGAQAHAVNVILDAETAYPNLIFSDDLKSVRLGNKWERLPDGPQRFDSCIIVLGSPSFLSGRRYWEVEVGDKTAWILGACKTSISRKGNMTLSPENGYWVVIMMKENEYQASSVPPTRLLIKEPPKRVGIFVDYRVGSISFYNVTARSHIYTFASCSFSGPLQPIFSPGTRDGGKNTAPLTICPVGGQGPD
modifications: lentiviral expression
notes: as for B3
B5: TRIM17: human RING type E3 ligase expressed from lentiviral vector (protein, UniProt Q9Y577 1-477, looked up)
E3 ubiquitin-protein ligase …: MEAVELARKLQEEATCSICLDYFTDPVMTTCGHNFCRACIQLSWEKARGKKGRRKRKGSFPCPECREMSPQRNLLPNRLLTKVAEMAQQHPGLQKQDLCQEHHEPLKLFCQKDQSPICVVCRESREHRLHRVLPAEEAVQGYKLKLEEDMEYLREQITRTGNLQAREEQSLAEWQGKVKERRERIVLEFEKMNLYLVEEEQRLLQALETEEEETASRLRESVACLDRQGHSLELLLLQLEERSTQGPLQMLQDMKEPLSRKNNVSVQCPEVAPPTRPRTVCRVPGQIEVLRGFLEDVVPDATSAYPYLLLYESRQRRYLGSSPEGSGFCSKDRFVAYPCAVGQTAFSSGRHYWEVGMNITGDALWALGVCRDNVSRKDRVPKCPENGFWVVQLSKGTKYLSTFSALTPVMLMEPPSHMGIFLDFEAGEVSFYSVSDGSHLHTYSQATFPGPLQPFFCLGAPKSGQMVISTVTMWVKG
B6: TRIM13: human RING type E3 ligase expressed from lentiviral vector (protein, UniProt O60858 1-407, looked up)
E3 ubiquitin-protein ligase …: MELLEEDLTCPICCSLFDDPRVLPCSHNFCKKCLEGILEGSVRNSLWRPAPFKCPTCRKETSATGINSLQVNYSLKGIVEKYNKIKISPKMPVCKGHLGQPLNIFCLTDMQLICGICATRGEHTKHVFCSIEDAYAQERDAFESLFQSFETWRRGDALSRLDTLETSKRKSLQLLTKDSDKVKEFFEKLQHTLDQKKNEILSDFETMKLAVMQAYDPEINKLNTILQEQRMAFNIAEAFKDVSEPIVFLQQMQEFREKIKVIKETPLPPSNLPASPLMKNFDTSQWEDIKLVDVDKLSLPQDTGTFISKIPWSFYKLFLLILLLGLVIVFGPTMFLEWSLFDDLATWKGCLSNFSSYLTKTADFIEQSVFYWEQVTDGFFIFNERFKNFTLVVLNNVAEFVCKYKLL
modifications: lentiviral expression
notes: as for B3
B7: TRIM18: human RING type E3 ligase expressed from lentiviral vector (protein, UniProt O15344 1-667, looked up)
E3 ubiquitin-protein ligase …: METLESELTCPICLELFEDPLLLPCAHSLCFNCAHRILVSHCATNESVESITAFQCPTCRHVITLSQRGLDGLKRNVTLQNIIDRFQKASVSGPNSPSETRRERAFDANTMTSAEKVLCQFCDQDPAQDAVKTCVTCEVSYCDECLKATHPNKKPFTGHRLIEPIPDSHIRGLMCLEHEDEKVNMYCVTDDQLICALCKLVGRHRDHQVAALSERYDKLKQNLESNLTNLIKRNTELETLLAKLIQTCQHVEVNASRQEAKLTEECDLLIEIIQQRRQIIGTKIKEGKVMRLRKLAQQIANCKQCIERSASLISQAEHSLKENDHARFLQTAKNITERVSMATASSQVLIPEINLNDTFDTFALDFSREKKLLECLDYLTAPNPPTIREELCTASYDTITVHWTSDDEFSVVSYELQYTIFTGQANVVSLCNSADSWMIVPNIKQNHYTVHGLQSGTKYIFMVKAINQAGSRSSEPGKLKTNSQPFKLDPKSAHRKLKVSHDNLTVERDESSSKKSHTPERFTSQGSYGVAGNVFIDSGRHYWEVVISGSTWYAIGLAYKSAPKHEWIGKNSASWALCRCNNNWVVRHNSKEIPIEPAPHLRRVGILLDYDNGSIAFYDALNSIHLYTFDVAFAQPVCPTFTVWNKCLTIITGLPIPDHLDCTEQLP
modifications: lentiviral expression
notes: as for B3
B8: TRIM19: human RING type E3 ligase expressed from lentiviral vector (protein, UniProt P29590 1-882, looked up)
Protein PML: MEPAPARSPRPQQDPARPQEPTMPPPETPSEGRQPSPSPSPTERAPASEEEFQFLRCQQCQAEAKCPKLLPCLHTLCSGCLEASGMQCPICQAPWPLGADTPALDNVFFESLQRRLSVYRQIVDAQAVCTRCKESADFWCFECEQLLCAKCFEAHQWFLKHEARPLAELRNQSVREFLDGTRKTNNIFCSNPNHRTPTLTSIYCRGCSKPLCCSCALLDSSHSELKCDISAEIQQRQEELDAMTQALQEQDSAFGAVHAQMHAAVGQLGRARAETEELIRERVRQVVAHVRAQERELLEAVDARYQRDYEEMASRLGRLDAVLQRIRTGSALVQRMKCYASDQEVLDMHGFLRQALCRLRQEEPQSLQAAVRTDGFDEFKVRLQDLSSCITQGKDAAVSKKASPEAASTPRDPIDVDLPEEAERVKAQVQALGLAEAQPMAVVQSVPGAHPVPVYAFSIKGPSYGEDVSNTTTAQKRKCSQTQCPRKVIKMESEEGKEARLARSSPEQPRPSTSKAVSPPHLDGPPSPRSPVIGSEVFLPNSNHVASGAGEAEERVVVISSSEDSDAENSSSRELDDSSSESSDLQLEGPSTLRVLDENLADPQAEDRPLVFFDLKIDNETQKISQLAAVNRESKFRVVIQPEAFFSIYSKAVSLEVGLQHFLSFLSSMRRPILACYKLWGPGLPNFFRALEDINRLWEFQEAISGFLAALPLIRERVPGASSFKLKNLAQTYLARNMSERSAMAAVLAMRDLCRLLEVSPGPQLAQHVYPFSSLQCFASLQPLVQAAVLPRAEARLLALHNVSFMELLSAHRRDRQGGLKKYSRYLSLQTTTLPPAQPAFNLQALGTYFEGLLEGPALARAEGVSTPLAGRGLAERASQQS

These molecules were tested on coxsackievirus B3 (CVB3-GFP). Conditions: HeLa cells, GFP-positive cells within RFP-positive gate, replicate R1.
Assay type: cell-based

First: B1
Second: B2
The “Percent Infected R1” value of the first is higher: 82% for the first, 70.6% for the second.

Compared with B3, B4 is higher in “Percent Infected R1” value: 66.8% for the first, 78.8% for the second.

Compared with B5, B6 is lower in “Percent Infected R1” value: 75.9% for the first, 53% for the second.

First: B7
Second: B8
The “Percent Infected R1” value of the first is higher: 71.6% for the first, 60.8% for the second.

Same assay, conditions: HeLa cells, replicate R1

Going from B1 to B2, the “Z score R1” value falls from −0.08 to −0.229.

First: B3
Second: B4
The “Z score R1” value of the first is lower: −0.277 for the first, −0.125 for the second.

Going from B5 to B6, the “Z score R1” value falls from −0.162 to −0.453.

First: B7
Second: B8
The “Z score R1” value of the first is higher: −0.216 for the first, −0.354 for the second.
